In the experiment the test system is target antigen-expressing cell line. Put plainly: Jurkat NFAT-GFP assay, coculture with target cell lines expressing the respective target antigen (summary Table 10A). The format is cell-based, human. Details: key: The signs +/−, +, 2+ etc. after the name of the cell lines indicate the relative degree of positivity on the Jurkat-NFAT-GFP assay as measured by the % GFP positive cells; +: relative degree of positivity on the Jurkat-NFAT-GFP assay as measured by the % GFP positive cells; 2+: relative degree of positivity on the Jurkat-NFAT-GFP assay as measured by the % GFP positive cells. In short, it runs like this: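 Stable SIR expression in Jurkat-NFAT-GFP cells by lentiviral transfer and puromycin selection; coculture with target cells (E:T approximately 1:2) for 4 to 18 hours; flow cytometric measurement of NFAT-driven GFP; scoring as positive when % GFP-positive cells exceeds that of parental reporter cells.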

B1: 100615-C06 (protein)
chain: MALPVTALLLPLALLLHAARPDIQMTQSPSSLSASVGDRVTITCRASQGIRNNLAWYQQKPGKAPKRLIYAASNLQSGVPSRFTGSGSGTEFTLIVSSLQPEDFATYYCLQHHSYPLTSGGGTKVELEGKPIPNPLLGLDSTGSGEDLKNVFPPEVAVFEPSKAEIAHTQKATLVCLATGFYPDHVELSWWVNGKEVHSGVCTDPQPLKEQPALNDSRYCLSSRLRVSATFWQNPRNHFRCQVQFYGLSENDEWTQDRAKPVTQIVSAEAWGRADCGITSASYHQGVLSATILYEILLGKATLYAVLVSALVLMAMVKRKDSRGRAKRSGSGATNFSLLKQAGDVEENPGPTSMDWIWRILFLVGAATGAHSFEEVQVLESGGGLVQPGGSLRLSCAASGFTFSSYAMSWVRQAPGKGLEWVSAISGSGGSTNYADSVKGRFTISRDNSKNTLYLQMNSLRAEDTAVYYCAGSSGWSEYWGQGTLVTVSSTREQKLISEEDGSGIQNPDPAVYQLRDSKSSDKSVCLFTDFDSQTNVSQSKDSDVYITDKCVLDMRSMDFKSNSAVAWSNKSDFACANAFNNSIIPEDTFFPSSDVPCDVKLVEKSFETDTNLNFQNLSVIGFRILLLKVAGFNLLMTLRLWSSRAKRSGSGVKQTLNFDLLKLAGDVESNPGPSRGHMTEYKPTVRLATRDDVPRAVRTLAAAFADYPATRHTVDPDRHIERVTELQELFLTRVGLDIGKVWVADDGAAVAVWTTPESVEAGAVFAEIGPRMAELSGSRLAAQQQMEGLLAPHRPKEPAWFLATVGVSPDHQGKGLGSAVVLPGVEAAERAGVPAFLETSAPRNLPFYERLGFTVTADVEVPEGPRTWCMTRKPGA
modifications: Synthetic Immune Receptor (SIR)
Take B1: the “NFAT-GFP ASSAY Positive Cell lines” value is, setting by setting: (coculture with HeLa (Hela) cells) “(+/−)”; (coculture with LoVo cells) “LoVo (+/−), HeLa”.

B2: 111915-U05 (protein)
chain: MALPVTALLLPLALLLHAARPDEFEVQLVESGGGLVQAGGSLRLSCVASGISSSKRNMGWYRQAPGKQRESVATISSGGNKDYTDAVKDRFTISRDTTKNTVYLQMNSLKPEDTAVYYCKIEAGTGWATRRGYTYWGQGTLVTVSSLEGKPIPNPLLGLDSTGSGEDLKNVFPPEVAVFEPSEAEISHTQKATLVCLATGFYPDHVELSWWVNGKEVHSGVCTDPQPLKEQPALNDSRYCLSSRLRVSATFWQNPRNHFRCQVQFYGLSENDEWTQDRAKPVTQIVSAEAWGRADCGFTSESYQQGVLSATILYEILLGKATLYAVLVSALVLMAMVKRKDSRGRAKRSGSGATNFSLLKQAGDVEENPGPTSMDWIWRILFLVGAATGAHSFEVQLVESGGGSVQPGGSLTLSCGTSGRTFNVMGWFRQAPGKEREFVAAVRWSSTGIYYTQYADSVKSRFTISRDNAKNTVYLEMNSLKPEDTAVYYCAADTYNSNPARWDGYDFRGQGTQVTVSSTREQKLISEEDGSGIQNPDPAVYQLRDSKSSDKSVCLFTDFDSQTNVSQSKDSDVYITDKCVLDMRSMDFKSNSAVAWSNKSDFACANAFNNSIIPEDTFFPSPESSCDVKLVEKSFETDTNLNFQNLSVIGFRILLLKVAGFNLLMTLRLWSSRAKRSGSGVKQTLNFDLLKLAGDVESNPGPSRGHMTEYKPTVRLATRDDVPRAVRTLAAAFADYPATRHTVDPDRHIERVTELQELFLTRVGLDIGKVWVADDGAAVAVWTTPESVEAGAVFAEIGPRMAELSGSRLAAQQQMEGLLAPHRPKEPAWFLATVGVSPDHQGKGLGSAVVLPGVEAAERAGVPAFLETSAPRNLPFYERLGFTVTADVEVPEGPRTWCMTRKPGA
modifications: Polynucleotide encoding a Synthetic Immune Receptor (SIR)
Regarding B2, the “NFAT-GFP ASSAY Positive Cell lines” value runs as follows: (coculture with Bv173 cells) “(+/−), THP1 (+/−),”; (coculture with KG1 cells) “KG1 (2+)”; (coculture with MOLM13 cells) “MOLM13 (+/−), Bv173”; (coculture with THP1 cells) “(+/−), THP1 (+/−),”.

B3: 111516-M03 (protein)
chain: MALPVTALLLPLALLLHAARPLEGKPIPNPLLGLDSTGSGEDLKNVFPPEVAVFEPSKAEIAHTQKATLVCLATGFYPDHVELSWWVNGKEVHSGVCTDPQPLKEQPALNDSRYCLSSRLRVSATFWQNPRNHFRCQVQFYGLSENDEWTQDRAKPVTQIVSAEAWGRADCGITSASYHQGVLSATILYEILLGKATLYAVLVSALVLMAMVKRKDSRGRAKRSGSGATNFSLLKQAGDVEENPGPTSMALPVTALLLPLALLLHAARPDIVLTQSPLSLAVSLGQPAIISCKASQSVSFAGTSLMHWYHQKPGQQPRLLIYRASNLEAGVPDRFSGSGSKTDFTLTISPVEAEDAATYYCQQSREYPYTFGGGTKLEIKRGGGGSGGGGSGGGGSQVQLVQSGAEVVKPGASVKISCKASGYTFTGYFMNWVKQSPGQSLEWIGRIHPYDGDTFYNQKFQGKATLTVDKSSNTAHMELLSLTSEDFAVYYCTRYDGSRAMDYWGQGTTVTVSSTREQKLISEEDGSGIQNPDPAVYQLRDSKSSDKSVCLFTDFDSQTNVSQSKDSDVYITDKCVLDMRSMDFKSNSAVAWSNKSDFACANAFNNSIIPEDTFFPSSDVPCDVKLVEKSFETDTNLNFQNLSVIGFRILLLKVAGFNLLMTLRLWSSRAKRSGSGVKQTLNFDLLKLAGDVESNPGPSRGHMTEYKPTVRLATRDDVPRAVRTLAAAFADYPATRHTVDPDRHIERVTELQELFLTRVGLDIGKVWVADDGAAVAVWTTPESVEAGAVFAEIGPRMAELSGSRLAAQQQMEGLLAPHRPKEPAWFLATVGVSPDHQGKGLGSAVVLPGVEAAERAGVPAFLETSAPRNLPFYERLGFTVTADVEVPEGPRTWCMTRKPGA
modifications: Polynucleotide encoding a Synthetic Immune Receptor (SIR)
In the case of B3, the “NFAT-GFP ASSAY Positive Cell lines” value reads like this: (coculture with LoVo cells) “(+/−)”; (coculture with SKOV3 cells) “SKOV3 (+), LoVo”.

B4: 111815-E04 (protein)
chain: MALPVTALLLPLALLLHAARPDEFEVQLVESGGGLVQAGGSLRLSCVASGISSSKRNMGWYRQAPGKQRESVATISSGGNKDYTDAVKDRFTISRDTTKNTVYLQMNSLKPEDTAVYYCKIEAGTGWATRRGYTYWGQGTLVTVSSLEGKPIPNPLLGLDSTGSGEDLKNVFPPEVAVFEPSEAEISHTQKATLVCLATGFYPDHVELSWWVNGKEVHSGVCTDPQPLKEQPALNDSRYCLSSRLRVSATFWQNPRNHFRCQVQFYGLSENDEWTQDRAKPVTQIVSAEAWGRADCGFTSESYQQGVLSATILYEILLGKATLYAVLVSALVLMAMVKRKDSRGRAKRSGSGATNFSLLKQAGDVEENPGPTSMDWIWRILFLVGAATGAHSFEVQLVESGGGSVQAGGSLRLSCTTSGRALNMYVMGWFRQAPGNEREFVAATSSSGGSTSYPDSVKGRFTISRDNAKNTVYLQMNSLKPEDTAAYRCAASPYVSTPTMNILEEYRYWGLGTQVTVSSTREQKLISEEDGSGIQNPDPAVYQLRDSKSSDKSVCLFTDFDSQTNVSQSKDSDVYITDKCVLDMRSMDFKSNSAVAWSNKSDFACANAFNNSIIPEDTFFPSPESSCDVKLVEKSFETDTNLNFQNLSVIGFRILLLKVAGFNLLMTLRLWSSRAKRSGSGVKQTLNFDLLKLAGDVESNPGPSRGHMTEYKPTVRLATRDDVPRAVRTLAAAFADYPATRHTVDPDRHIERVTELQELFLTRVGLDIGKVWVADDGAAVAVWTTPESVEAGAVFAEIGPRMAELSGSRLAAQQQMEGLLAPHRPKEPAWFLATVGVSPDHQGKGLGSAVVLPGVEAAERAGVPAFLETSAPRNLPFYERLGFTVTADVEVPEGPRTWCMTRKPGA
modifications: Polynucleotide encoding a Synthetic Immune Receptor (SIR)
As to B4, the “NFAT-GFP ASSAY Positive Cell lines” value is, setting by setting: (coculture with Bv173 cells) “(2+)”; (coculture with U266 cells) “U266 (2+), Bv173”.

B5: 010417-V07 (protein)
chain: MALPVTALLLPLALLLHAARPLEGKPIPNPLLGLDSTGSGEDLKNVFPPEVAVFEPSKAEIAHTQKATLVCLATGFYPDHVELSWWVNGKEVHSGVCTDPQPLKEQPALNDSRYCLSSRLRVSATFWQNPRNHFRCQVQFYGLSENDEWTQDRAKPVTQIVSAEAWGRADCGITSASYHQGVLSATILYEILLGKATLYAVLVSALVLMAMVKRKDSRGRAKRSGSGATNFSLLKQAGDVEENPGPTSTMALPVTALLLPLALLLHAARPDIQMTQSPSSLSASVGDRVTITCKASQDVGIAVAWYQQKPGKVPKLLIYWASTRHTGVPDRFSGSGSGTDFTLTISSLQPEDVATYYCQQYSSYPYTFGQGTKVEIKGGGGSGGGGSGGGGSEVQLVESGGGLVQPGGSLRLSCAASGFDFSRYWMSWVRQAPGKGLEWIGEINPDSSTINYAPSLKDKFIISRDNAKNSLYLQMNSLRAEDTAVYYCARPDGNYWYFDVWGQGTLVTVSSTREAAAKEIVLTQSPATLSLSPGERATLSCSASSSVSYMHWYQQKPGQAPRLLIYDTSKLASGIPARFSGSGSGTDFTLTISSLEPEDVAVYYCFQGSVYPFTFGQGTKLEIKRGGGGSGGGGSGGGGSQVQLQESGPGLVKPSQTLSLTCTVSGGSISTSGMGVGWIRQHPGKGLEWIGHIWWDDDKRYNPALKSRVTISVDTSKNQFSLKLSSVTAADTAVYYCARMELWSYYFDYWGQGTLVTVSSTREQKLISEEDGSGIQNPDPAVYQLRDSKSSDKSVCLFTDFDSQTNVSQSKDSDVYITDKCVLDMRSMDFKSNSAVAWSNKSDFACANAFNNSIIPEDTFFPSSDVPCDVKLVEKSFETDTNLNFQNLSVIGFRILLLKVAGFNLLMTLRLWSSRAKRSGSGVKQTLNFDLLKLAGDVESNPGPSRGHMTEYKPTVRLATRDDVPRAVRTLAAAFADYPATRHTVDPDRHIERVTELQELFLTRVGLDIGKVWVADDGAAVAVWTTPESVEAGAVFAEIGPRMAELSGSRLAAQQQMEGLLAPHRPKEPAWFLATVGVSPDHQGKGLGSAVVLPGVEAAERAGVPAFLETSAPRNLPFYERLGFTVTADVEVPEGPRTWCMTRKPGA
In the case of B5, the “NFAT-GFP ASSAY Positive Cell lines” value (coculture with L363 cells) is “(+), L363 (+), U266”; the “NFAT-GFP ASSAY Positive Cell lines” value (coculture with NALM6 cells) is given as “(+), L363 (+), U266”; the “NFAT-GFP ASSAY Positive Cell lines” value (coculture with RAJI cells) is given as “RAJI (+), NALM6”; the “NFAT-GFP ASSAY Positive Cell lines” value (coculture with U266 cells) is given as “(+)”.
